Results taken from patent US20220396819A1, “METHOD FOR PRODUCING PEPTIDE HAVING PHYSIOLOGICAL ACTIVITY, AND PEPTIDE COMPRISING SHORT LINKER” (priority 2019, published 2022).
Positions of bridges follow the written chain, without caps; N, C: chain ends. No end group written: not given here.

Legend:
Met = biological target: T1, Met (Homo sapiens, UniProt P08581); assay: Met activation ability, SRE luciferase assay in HEK293E cells (HGF-Erk-SRE pathway); assay type: cell-based; settings: for signal activation ability, dimer versus monomer: Example 43, FIG. 76
T1 construct: endogenous in cells; host or cells: HEK293E
T1 sequence (P08581 25-1390): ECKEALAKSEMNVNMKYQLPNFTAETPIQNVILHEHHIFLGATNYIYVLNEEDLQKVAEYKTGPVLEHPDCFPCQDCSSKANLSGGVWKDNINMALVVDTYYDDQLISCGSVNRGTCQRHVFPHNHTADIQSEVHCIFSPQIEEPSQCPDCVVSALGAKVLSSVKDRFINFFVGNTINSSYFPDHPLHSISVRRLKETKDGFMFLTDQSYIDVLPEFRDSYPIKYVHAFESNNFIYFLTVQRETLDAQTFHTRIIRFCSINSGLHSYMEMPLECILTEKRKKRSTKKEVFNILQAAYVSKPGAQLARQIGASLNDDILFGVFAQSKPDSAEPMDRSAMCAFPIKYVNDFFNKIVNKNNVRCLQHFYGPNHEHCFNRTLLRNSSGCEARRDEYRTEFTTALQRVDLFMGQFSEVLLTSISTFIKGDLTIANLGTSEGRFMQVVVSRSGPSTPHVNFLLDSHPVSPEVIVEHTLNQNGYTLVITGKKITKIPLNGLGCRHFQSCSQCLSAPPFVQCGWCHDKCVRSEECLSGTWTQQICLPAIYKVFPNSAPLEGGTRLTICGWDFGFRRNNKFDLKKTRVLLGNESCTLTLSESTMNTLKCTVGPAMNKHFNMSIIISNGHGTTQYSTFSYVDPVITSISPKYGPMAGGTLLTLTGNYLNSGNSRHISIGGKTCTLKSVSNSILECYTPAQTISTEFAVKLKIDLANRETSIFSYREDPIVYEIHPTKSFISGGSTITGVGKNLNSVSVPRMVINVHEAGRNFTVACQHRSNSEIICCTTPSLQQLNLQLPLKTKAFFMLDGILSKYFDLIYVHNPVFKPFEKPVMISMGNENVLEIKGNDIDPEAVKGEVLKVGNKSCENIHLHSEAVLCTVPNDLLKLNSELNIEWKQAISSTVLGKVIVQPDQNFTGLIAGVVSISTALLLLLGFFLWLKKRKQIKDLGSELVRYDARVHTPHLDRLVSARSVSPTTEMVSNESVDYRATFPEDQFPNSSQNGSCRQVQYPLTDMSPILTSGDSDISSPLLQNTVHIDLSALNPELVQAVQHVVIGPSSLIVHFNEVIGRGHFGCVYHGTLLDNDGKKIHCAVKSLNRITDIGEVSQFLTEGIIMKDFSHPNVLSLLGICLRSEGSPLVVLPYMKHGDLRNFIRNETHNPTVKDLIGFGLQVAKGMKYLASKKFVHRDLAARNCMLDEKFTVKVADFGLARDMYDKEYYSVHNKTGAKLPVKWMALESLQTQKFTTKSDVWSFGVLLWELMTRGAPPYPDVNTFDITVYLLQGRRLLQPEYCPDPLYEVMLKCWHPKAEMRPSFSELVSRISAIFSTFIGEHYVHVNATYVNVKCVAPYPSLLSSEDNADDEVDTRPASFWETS
Method: (§1) The Met activation ability of the HGF-PAS dimer peptide was evaluated by luciferase assay. To 25 μL of Opti-MEM medium (Thermo Fisher Scientific), 0.6 μL of Attractene Transfection Reagent (QIAGEN) was added, and the mixture was incubated at room temperature for 5 minutes. To the above mixed solution, a mixed solution of 25 μL of Opti-MEM and 1 μL of SRE reporter vector (QIAGEN) was added, and the mixture was incubated at room temperature for 20 minutes. This mixed solution was added to a 96-well plate, over which 40,000 cell/well HEK293E cells were seeded and incubated overnight in a 5% CO2 incubator at 37° C. After transfection, all culture supernatant was removed, 100 μL of Opti-MEM medium (evaluation basal medium) containing 0.5% FBS (Thermo Fisher Scientific), 1% non-essential amino acid solution (Thermo Fisher Scientific), and penicillin-streptomycin (Nacalai Tesque) was added, and incubation was performed at 37° C. for 4 hours, and thereby the cells were starved.
To the evaluation basal medium, 0 to 200 ng/mL HGF was added, or 0 to 800 ng/mL AET-PAS-aMD4dY-PEG11, AET-PAS-aMD4-PEG11, or AET-PAS-aMD4-PEG3 was added, or a culture supernatant containing PAS-aMD4dY-PEG11, PAS-aMD4-PEG11, or PAS-aMD4-PEG3 was added so as to be diluted 10-fold with respect to the medium, and the evaluation basal medium was added in an amount of 100 μL to the cells. The cells were stimulated by culturing overnight in a 5% CO2 incubator at 37° C.
The signal intensities were detected using Dual-Luciferase Reporter Assay System (Promega). The medium supernatant in an amount of 100 μL was removed, 50 μL of Glo reagent was added, and the cells were lysed for 10 minutes at room temperature. The luminescence of Firefly luciferase emitted from the cell lysate solution was detected with a plate reader to quantify the activation of the HGF-Erk-SRE pathway. Subsequently, 50 μL of Glo & Stop reagent solution was added, and after 10 minutes, the luminescence of the internal standard Renilla luciferase was detected to quantify the number of cells. The signal activity of each sample was quantified as SRE activity=(Firefly luciferase luminescence intensity)/(Renilla luciferase luminescence intensity). The relative signal activity values for the samples without addition of the evaluation compound were determined and used as relative receptor activity.
as §1, with “peptide linker variant” for “peptide”, “0.6 L” for “0.6 μL”
To the evaluation basal medium, 0 to 100 ng/mL HGF was added, or a culture supernatant containing AET-aMD4dY-PAS8, AET-aMD4dY-PAS22 (the same molecule as AET-PAS-aMD4dY-PEG11), AET-aMD4dY-PAS49, AET-aMD4dY-PAS100, AET-aMD4dY-PAS200, AET-aMD4dY-GS15, or AET-aMD4dY-GS22 was added to the medium so as to be diluted at a predetermined ratio, and the evaluation basal medium was added in an amount of 100 μL to the cells. The cells were stimulated by culturing overnight in a 5% CO2 incubator at 37° C.
The Met activation ability of the stabilized HGF-PAS dimer peptide was evaluated by luciferase assay. […]

HuCCT1 cells = assay: Tubular structure formation of HuCCT1 cells in collagen gel; assay type: cell-based; settings: 40 ng/mL, day 7
Excerpt: It is known that HGF is allowed to act on HUVEC cells and HuCCT1 cells contained in collagen gel to form a tubular structure (K. Ito, et al. Nat. Commun. 6, 6373, 2015). It has also been reported that a Met full agonist having a function similar to that of HGF can form a tubular structure in the above cells, whereas a partial agonist having only a partial function cannot promote the formation of a tubular structure (W. Miao, et al. Int. J. Mol. Sci. 19, 3141, 2018). Therefore, it was decided to confirm whether the HGF-PAS dimer peptide was a full agonist or a partial agonist by using a tubular structure formation experiment using HuCCT1 cells.
To 8 equivalents of CellMatrix type IA (Nitta Gelatin), 1 equivalent of 10-fold concentrated D-MEM/F12 (Thermo Fisher Scientific) and 1 equivalent of reconstitution buffer (22 g/L sodium bicarbonate, 47.7 g/L HEPES, 0.05N sodium hydroxide aqueous solution) were mixed in order on ice. HuCCT1 cells were added at 25,000 cells per mL of the mixture and mixed on ice. To a 48-well cell culture plate, 400 μL of the above mixture was added, and the mixture was allowed to stand for 4 hours under the conditions of 37° C. and 5% CO2 for gelation. Onto the formed intracellular encapsulated collagen gel, 500 μL of RPMI 1640 medium containing 10% FBS was added. The cell-stimulating group was cultured by adding 35 ng/mL HGF or 40 ng/mL AET-PAS-aMD4dY-PEG11. […]

Row | Substance | maximum activity compared with HGF (Met; Example 6, AET form 0 to 800 ng/mL, PAS form culture supernatant diluted 10-fold) | signal activation ability, dimer versus monomer (Met) | agonist type (full or partial) for Met (HuCCT1 cells)
1 | AETCRQFNRRTHEVWNLDCGAAPAAPAPAAPAAPAPAAPAAPGCRQFNRRTHEVWNLDC (disulfide 4-19, 44-59; also: PEG11) [AET-PAS-aMD4dY-PEG11] | comparable to 100 ng/mL HGF | showed signal activation ability | full agonist for Met
2 | HGF: recombinant human HGF (rhHGF, R&D Systems) | – | showed signal activation ability | –
